Laboratory results taken from patent US20070015260A1, “Synthesis of synthons for the manufacture of bioactive compounds” (DIVERSA CORPORATION, priority 2002, published 2007).
Numbering of substitutions follows the chain as printed. Numbers in names are those of the source. Entries after “also recorded” stand apart in the source; their conditions may differ.

B1: S238D: DERA variant, phosphate binding pocket residue Ser238 replaced with Asp (protein, UniProt P0A6L0 1-259, looked up, variant S238D)
Deoxyribose-phosphate aldolase: MTDLKASSLRALKLMDLTTLNDDDTDEKVIALCHQAKTPVGNTAAICIYPRFIPIARKTLKEQGTPEIRIATVTNFPHGNDDIDIALAETRAAIAYGADEVDVVFPYRALMAGNEQVGFDLVKACKEACAAANVLLKVIIETGELKDEALIRKASEISIKAGADFIKTSTGKVAVNATPESARIMMEVIRDMGVEKTVGFKPAGGVRTAEDAQKYLAIADELFGADWADARHYRFGADSLLASLLKALGHGDGKSASSY
B2: G205E: DERA variant, neutral phosphate binding pocket residue Gly205 replaced with Glu (protein, UniProt P0A6L0 1-259, looked up, variant G205E)
Deoxyribose-phosphate aldolase: B1 Deoxyribose-phosphate aldolase with G205E, D238S
B3: K172E: DERA variant, basic phosphate binding pocket residue Lys172 mutated to Glu (protein, UniProt P0A6L0 1-259, looked up, variant K172E)
Deoxyribose-phosphate aldolase: B1 Deoxyribose-phosphate aldolase with K172E, D238S
B4: R207E: DERA variant, basic phosphate binding pocket residue Arg207 mutated to Glu (protein, UniProt P0A6L0 1-259, looked up, variant R207E)
Deoxyribose-phosphate aldolase: B1 Deoxyribose-phosphate aldolase with R207E, D238S

Key:
[1] = DERA cleavage (retroaldol) coupled assay, natural substrate DRP; assay type: biochemical; settings: for Km / kcat: retro-aldol, pH 7.5, 25° C.; for activity / kcat/KM with the natural substrate DRP, in words: compared to WT
Protocol: (§1) Enzyme activity was monitored by the standard coupled assay using α-Glycerophosphate Dehydrogenase (α-GPD, EC 1.1.18), and Triosephosphate Isomerase (TPI, EC 5.3.1.1). Enzyme activity was assayed in the retro-aldol, decomposition direction with 0.01-4 mM D-2-deoxyribose-5-phosphate (DRP) or 5 to 200 mM D-2-deoxyribose in 50 mM triethanolamine hydrochloride pH 7.5 buffer using a GPD/TPI (1.6 U/mL Sigma G-1881) coupled enzyme system at 25° C. in the presence of 0.3 mM NADH by observing the rate of decrease of NADH concentration as monitored at 340 nm, ε=6220 M^−cm^−1.

[2] = Sequential asymmetric aldol reaction with azidoaldehyde acceptor; assay type: biochemical; settings: 3-azidopropinaldehyde acceptor, two molecules of acetaldehyde as donor
[3] = DERA cleavage (retroaldol) coupled assay, unnatural substrate DR; assay type: biochemical; settings: for ratio of specificity constants {kcat/KM (DR)}/{kcat/KM (DRP)}: DR compared to DRP, read; for activity / specificity with DR, in words: compared to WT; for Km / kcat: retro-aldol, pH 7.5, 25° C.
Protocol: as §1

[4] = test system: E. coli SELECT (Δace, adhC, DE3) cells; assay: In vivo selection: growth of E. coli SELECT with supplementation substrates; assay type: cell-based; settings: for toxicity of supplementation substrate to SELECT cells: together with sodium acetate
Excerpt: SELECT was transformed with the DERA expressing plasmid, pET30a WT DERA, and growth conditions were then optimized for the expression of soluble active DERA enzyme. Selection conditions were further optimized using DERA's natural substrate DRP as a supplementation substrate and FIG. 6 illustrates that viable selection conditions are achieved. In the absence of 2-carbon supplementation, neither SELECT cells transformed with a plasmid which expresses WT DERA nor those transformed with a nonexpressing plasmid (−) grow. By contrast, both grow in the presence of sodium acetate supplementation. […] Proof of principle for this selection system arises from the fact that only E. coli SELECT cells transformed with plasmid that expresses WT DERA grow when DRP is used as the supplementation substrate. Furthermore, that the endogenous genomic E. coli DERA is not expressed at a sufficiently high level to affect the use of DRP as a 2-carbon source by virtue of its metabolism to acetaldehyde and D-glyceraldehyde-3-phosphate was established. […] A novel activity-based selection system is thus established and can be used to select for a DERA variant which can catalyze the retro-aldol reaction of DR and other nonphosphorylated substrates. Work is in progress to identify novel DERA variants for this purpose.
Plasmids were transformed into electrocompetent SELECT cells and subjected to 1 h outgrowth at 37° C. in 1 mL SOC medium supplemented with 0.1% sodium acetate. The cells were then collected by centrifugation at 4° C., 3000 rpm for 10 min. The supernatant was discarded and the pellet gently resuspended M9 0.2% glucose. This was repeated twice. The cells were then diluted to OD600=0.001 in M9 0.2% glucose, 0.01 mM IPTG, 10 μg/mL kanamycin. The appropriation supplementation substrate (sodium acetate, D-2-deoxyribose-phosphate or D-2-deoxyribose) was then added at 0.1% w/w concentration. After an appropriate selection time at 37° C., typically 24-72 h, the cells were harvested by centrifugation and their amplified plasmids isolated.

[5] = DERA addition (aldol) assay; assay type: biochemical; settings: spectrophotometric coupled-assay of substrate consumption and TLC of product formation
Protocol: DERA enzyme activity was assayed in the aldol synthesis direction by determining the concentration of acetaldehyde remaining by a coupled endpoint assay with yeast alcohol dehydrogenase (YADH, EC 1.1.1.1). 200 mM acetaldehyde, which had been freshly distilled under anerobic conditions, 200 mM (±)-glyceraldehyde and 0.2 mg/mL DERA in 50 mM triethanolamine, pH 7.5 buffer which had been deoxygenated with N2, were incubated under an N2 atmosphere at 22° C. At various time points, 50 μL aliquots were withdrawn and quenched into 15 μL of 60% perchloric acid. After a 5 min incubation on ice, 890 μL 1 M triethanolamine, pH 7.5 buffer and 45 μL 4 N NaOH were added to neutralize the solution. 20 μL of this solution was then assayed for remaining acetaldehyde. The amount of acetaldehyde remaining was equated to moles NADH consumed, as determined in triethanolamine pH 7.5 buffer containing 0.3 mM NADH, 20 μL the above quenched reaction aliquot and 0.05 mg/mL YADH. DR product formation was also confirmed by silica gel TLC with ethylacetate running solvent and p-anisaldehyde developing stain. Rf: glyceraldehyde=0.04 (stains brown) Rf:2-deoxyribose=0.1 (stains blue).

[6] = DERA catalysis with 2-methyl-3-hydroxypropinaldehyde as acceptor; assay type: biochemical; settings: L-2-methyl derivative as substrate

Molecule | Km [1] | kcat [1] | acceptance of the azidoaldehyde as substrate [2] | ratio of specificity constants {kcat/KM (DR)}/{kcat/KM (DRP)} [3] | activity / specificity with DR, in words ([3]; substrate DR) | Km ([3]; substrate DR) | kcat ([3]; substrate DR) | growth of SELECT cells transformed with expressing plasmid ([4]; DRP as the supplementation substrate) | relative activity of the DERA variants in the aldol direction [5] | toxicity of supplementation substrate to SELECT cells [4] | activity / kcat/KM with the natural substrate DRP, in words [1] | improvement in kcat/KM compared to WT-DERA ([3]; substrate DR) | improvement in kcat/KM compared to that of the wild type [6] | decrease in kcat/KM ([3]; substrate DR)
WT: wild-type E. coli 2-deoxyribose-5-phosphate aldolase (DERA, EC 4.1.2.4) | 0.64 ± 0.01 mM | 68 ± 1 s⁻¹ | not a substrate; also recorded: inactive | 1.9 × 10^−5 | cannot accept the unnatural substrate DR efficiently | 57 ± 7 mM | 0.107 ± 0.005 s⁻¹ | grow | S238˜DS239W>WT>R207E>K172E>G205E |  |  |  |  | 
O=CC[C@@H](O)[C@H](O)COP(=O)(O)O [DRP, D-2-deoxyribose-5-phosphate] |  |  |  |  |  |  |  |  |  | neither of these supplementation substrates nor their metabolic products are toxic to the cells |  |  |  | 
O=CC[C@@H](O)[C@H](O)CO [DR, D-2-deoxyribose] |  |  |  |  |  |  |  |  |  | neither of these supplementation substrates nor their metabolic products are toxic to the cells |  |  |  | 
B1 | 61 ± 11 mM | 0.58 ± 0.05 s⁻¹ | catalyzes a novel sequential aldol reaction; also recorded: accepts 3-azidopropionaldehyde as a new substrate | 0.13 |  | 39 ± 6 mM | 0.21 ± 0.01 s⁻¹ |  | S238˜DS239W>WT>R207E>K172E>G205E |  | substantially decreased | 2.5 fold | 5 fold | 
B2 |  |  |  | 3.1 × 10^−3 | virtually inactive |  |  |  | S238˜DS239W>WT>R207E>K172E>G205E |  | virtually inactive |  |  | 
B3 |  |  |  | 0.27 |  | 63 ± 22 mM | 0.022 ± 0.02 s⁻¹ |  | S238˜DS239W>WT>R207E>K172E>G205E |  |  |  |  | 5 fold
B4 |  |  |  | 2.2 | virtually unchanged | 33 ± 3 mM | 0.064 ± 0.001 s⁻¹ |  | S238˜DS239W>WT>R207E>K172E>G205E |  |  |  |  | 
